From patent publication US20100266614A1 (AstraZeneca / MedImmune, published 2010)

B1: 16 (antibody, V domains shown)
VH: QVTLRESGPALVKPTQTLTLTCTFSGFSLSTAGMSVGWIRQPPGKALEWLADIWWDDKKDYNPSLKSRLTISKDTSKNQVVLKVTNMDPADTATYYCARSMITNWYFDVWGQGTTVTVSS
VL: DIQMTQSPSTLSASVGDRVTITCSASSSVGYMHWYQQKPGKAPKLLIYDTSKLASGVPSRFSGSGSGTEFTLTISSLQPDDFATYYCFQGSGYPFTFGGGTKVEIK
notes: also called AWSG
B2: clone 20 (SFSF) (antibody, V domains shown)
VH: QVTLRESGPALVKPTQTLTLTCTFSGFSLSTSGMSVGWIRQPPGKALEWLADIWWDDKKDYNPSLKSRLTISKDTSKNQVVLKVTNMDPADTATYYCARSMITNFYFDVWGQGTTVTVSS
VL: DIQMTQSPSTLSASVGDRVTITCSASSSVGYMHWYQQKPGKAPKLLIYDTSKLASGVPSRFSGSGSGTEFTLTISSLQPDDFATYYCFQGSFYPFTFGGGTKVEIK
B3: clone 11 (PWFW) (antibody, V domains shown)
VH: QVTLRESGPALVKPTQTLTLTCTFSGFSLSTPGMSVGWIRQPPGKALEWLADIWWDDKKDYNPSLKSRLTISKDTSKNQVVLKVTNMDPADTATYYCARSMITNWYFDVWGQGTTVTVSS
VL: DIQMTQSPSTLSASVGDRVTITCSASSSVGYMHWYQQKPGKAPKLLIYDTFKLASGVPSRFSGSGSGTEFTLTISSLQPDDFATYYCFQGSWYPFTFGGGTKVEIK
B4: clone 4 (PFFY) (antibody, V domains shown)
VH: QVTLRESGPALVKPTQTLTLTCTFSGFSLSTPGMSVGWIRQPPGKALEWLADIWWDDKKDYNPSLKSRLTISKDTSKNQVVLKVTNMDPADTATYYCARSMITNFYFDVWGQGTTVTVSS
VL: DIQMTQSPSTLSASVGDRVTITCSASSSVGYMHWYQQKPGKAPKLLIYDTFKLASGVPSRFSGSGSGTEFTLTISSLQPDDFATYYCFQGSYYPFTFGGGTKVEIK
notes: also called 4 (n = 3)
B5: clone 19 (SFSW) (antibody, V domains shown)
VH: QVTLRESGPALVKPTQTLTLTCTFSGFSLSTSGMSVGWIRQPPGKALEWLADIWWDDKKDYNPSLKSRLTISKDTSKNQVVLKVTNMDPADTATYYCARSMITNFYFDVWGQGTTVTVSS
VL: DIQMTQSPSTLSASVGDRVTITCSASSSVGYMHWYQQKPGKAPKLLIYDTSKLASGVPSRFSGSGSGTEFTLTISSLQPDDFATYYCFQGSWYPFTFGGGTKVEIK
B6: clone 22 (AFFF) (Fab, V domains shown)
VH: QVTLRESGPALVKPTQTLTLTCTFSGFSLSTAGMSVGWIRQPPGKALEWLADIWWDDKKDYNPSLKSRLTISKDTSKNQVVLKVTNMDPADTATYYCARSMITNFYFDVWGQGTTVTVSS
VL: DIQMTQSPSTLSASVGDRVTITCSASSSVGYMHWYQQKPGKAPKLLIYDTFKLASGVPSRFSGSGSGTEFTLTISSLQPDDFATYYCFQGSFYPFTFGGGTKVEIK
notes: also called 4D2-7
B7: clone 18 (SFFG) (antibody, V domains shown)
VH: QVTLRESGPALVKPTQTLTLTCTFSGFSLSTSGMSVGWIRQPPGKALEWLADIWWDDKKDYNPSLKSRLTISKDTSKNQVVLKVTNMDPADTATYYCARSMITNFYFDVWGQGTTVTVSS
VL: DIQMTQSPSTLSASVGDRVTITCSASSSVGYMHWYQQKPGKAPKLLIYDTFKLASGVPSRFSGSGSGTEFTLTISSLQPDDFATYYCFQGSGYPFTFGGGTKVEIK
notes: also called 18 (n = 2)
B8: clone 16 (PFSG) (antibody, V domains shown)
VH: QVTLRESGPALVKPTQTLTLTCTFSGFSLSTPGMSVGWIRQPPGKALEWLADIWWDDKKDYNPSLKSRLTISKDTSKNQVVLKVTNMDPADTATYYCARSMITNFYFDVWGQGTTVTVSS
VL: DIQMTQSPSTLSASVGDRVTITCSASSSVGYMHWYQQKPGKAPKLLIYDTSKLASGVPSRFSGSGSGTEFTLTISSLQPDDFATYYCFQGSGYPFTFGGGTKVEIK
notes: also called 16 (n = 2)
B9: clone 10 (PFSF) (antibody, V domains shown)
VH: QVTLRESGPALVKPTQTLTLTCTFSGFSLSTPGMSVGWIRQPPGKALEWLADIWWDDKKDYNPSLKSRLTISKDTSKNQVVLKVTNMDPADTATYYCARSMITNFYFDVWGQGTTVTVSS
VL: DIQMTQSPSTLSASVGDRVTITCSASSSVGYMHWYQQKPGKAPKLLIYDTSKLASGVPSRFSGSGSGTEFTLTISSLQPDDFATYYCFQGSFYPFTFGGGTKVEIK
B10: clone 13 (SFFF) (antibody, V domains shown)
VH: QVTLRESGPALVKPTQTLTLTCTFSGFSLSTSGMSVGWIRQPPGKALEWLADIWWDDKKDYNPSLKSRLTISKDTSKNQVVLKVTNMDPADTATYYCARSMITNFYFDVWGQGTTVTVSS
VL: DIQMTQSPSTLSASVGDRVTITCSASSSVGYMHWYQQKPGKAPKLLIYDTFKLASGVPSRFSGSGSGTEFTLTISSLQPDDFATYYCFQGSFYPFTFGGGTKVEIK
notes: also called 13 (n = 3)
B11: clone 12 (PWFF) (antibody, V domains shown)
VH: QVTLRESGPALVKPTQTLTLTCTFSGFSLSTPGMSVGWIRQPPGKALEWLADIWWDDKKDYNPSLKSRLTISKDTSKNQVVLKVTNMDPADTATYYCARSMITNWYFDVWGQGTTVTVSS
VL: DIQMTQSPSTLSASVGDRVTITCSASSSVGYMHWYQQKPGKAPKLLIYDTFKLASGVPSRFSGSGSGTEFTLTISSLQPDDFATYYCFQGSFYPFTFGGGTKVEIK
notes: also called 12 (n = 2)
B12: clone 21 (SWYF) (antibody, V domains shown)
VH: QVTLRESGPALVKPTQTLTLTCTFSGFSLSTSGMSVGWIRQPPGKALEWLADIWWDDKKDYNPSLKSRLTISKDTSKNQVVLKVTNMDPADTATYYCARSMITNWYFDVWGQGTTVTVSS
VL: DIQMTQSPSTLSASVGDRVTITCSASSSVGYMHWYQQKPGKAPKLLIYDTYKLASGVPSRFSGSGSGTEFTLTISSLQPDDFATYYCFQGSFYPFTFGGGTKVEIK
B13: clone 9 (PFSW) (antibody, V domains shown)
VH: QVTLRESGPALVKPTQTLTLTCTFSGFSLSTPGMSVGWIRQPPGKALEWLADIWWDDKKDYNPSLKSRLTISKDTSKNQVVLKVTNMDPADTATYYCARSMITNFYFDVWGQGTTVTVSS
VL: DIQMTQSPSTLSASVGDRVTITCSASSSVGYMHWYQQKPGKAPKLLIYDTSKLASGVPSRFSGSGSGTEFTLTISSLQPDDFATYYCFQGSWYPFTFGGGTKVEIK
notes: also called 9 (n = 2)
B14: clone 14 (SFFW) (antibody, V domains shown)
VH: QVTLRESGPALVKPTQTLTLTCTFSGFSLSTSGMSVGWIRQPPGKALEWLADIWWDDKKDYNPSLKSRLTISKDTSKNQVVLKVTNMDPADTATYYCARSMITNFYFDVWGQGTTVTVSS
VL: DIQMTQSPSTLSASVGDRVTITCSASSSVGYMHWYQQKPGKAPKLLIYDTFKLASGVPSRFSGSGSGTEFTLTISSLQPDDFATYYCFQGSWYPFTFGGGTKVEIK
B15: clone 17 (PWSW) (antibody, V domains shown)
VH: QVTLRESGPALVKPTQTLTLTCTFSGFSLSTPGMSVGWIRQPPGKALEWLADIWWDDKKDYNPSLKSRLTISKDTSKNQVVLKVTNMDPADTATYYCARSMITNWYFDVWGQGTTVTVSS
VL: DIQMTQSPSTLSASVGDRVTITCSASSSVGYMHWYQQKPGKAPKLLIYDTSKLASGVPSRFSGSGSGTEFTLTISSLQPDDFATYYCFQGSWYPFTFGGGTKVEIK
B16: IX-493 (SWSG), basic or reference antibody (Fab, V domains shown)
VH: QVTLRESGPALVKPTQTLTLTCTFSGFSLSTSGMSVGWIRQPPGKALEWLADIWWDDKKDYNPSLKSRLTISKDTSKNQVVLKVTNMDPADTATYYCARSMITNWYFDVWGQGTTVTVSS
VL: DIQMTQSPSTLSASVGDRVTITCSASSSVGYMHWYQQKPGKAPKLLIYDTSKLASGVPSRFSGSGSGTEFTLTISSLQPDDFATYYCFQGSGYPFTFGGGTKVEIK
notes: also called basic antibody
B17: clone 7 (PFFG) (antibody, V domains shown)
VH: QVTLRESGPALVKPTQTLTLTCTFSGFSLSTPGMSVGWIRQPPGKALEWLADIWWDDKKDYNPSLKSRLTISKDTSKNQVVLKVTNMDPADTATYYCARSMITNFYFDVWGQGTTVTVSS
VL: DIQMTQSPSTLSASVGDRVTITCSASSSVGYMHWYQQKPGKAPKLLIYDTFKLASGVPSRFSGSGSGTEFTLTISSLQPDDFATYYCFQGSGYPFTFGGGTKVEIK
notes: also called 7 (n = 4)
B18: clone 15 (AFSG) (antibody, V domains shown)
VH: QVTLRESGPALVKPTQTLTLTCTFSGFSLSTAGMSVGWIRQPPGKALEWLADIWWDDKKDYNPSLKSRLTISKDTSKNQVVLKVTNMDPADTATYYCARSMITNFYFDVWGQGTTVTVSS
VL: DIQMTQSPSTLSASVGDRVTITCSASSSVGYMHWYQQKPGKAPKLLIYDTSKLASGVPSRFSGSGSGTEFTLTISSLQPDDFATYYCFQGSGYPFTFGGGTKVEIK
notes: also called 15 (n = 2)
B19: clone 6 (PFYF) (antibody, V domains shown)
VH: QVTLRESGPALVKPTQTLTLTCTFSGFSLSTPGMSVGWIRQPPGKALEWLADIWWDDKKDYNPSLKSRLTISKDTSKNQVVLKVTNMDPADTATYYCARSMITNFYFDVWGQGTTVTVSS
VL: DIQMTQSPSTLSASVGDRVTITCSASSSVGYMHWYQQKPGKAPKLLIYDTYKLASGVPSRFSGSGSGTEFTLTISSLQPDDFATYYCFQGSFYPFTFGGGTKVEIK
B20: clone 5 (PFFW) (antibody, V domains shown)
VH: QVTLRESGPALVKPTQTLTLTCTFSGFSLSTPGMSVGWIRQPPGKALEWLADIWWDDKKDYNPSLKSRLTISKDTSKNQVVLKVTNMDPADTATYYCARSMITNFYFDVWGQGTTVTVSS
VL: DIQMTQSPSTLSASVGDRVTITCSASSSVGYMHWYQQKPGKAPKLLIYDTFKLASGVPSRFSGSGSGTEFTLTISSLQPDDFATYYCFQGSWYPFTFGGGTKVEIK
notes: also called 5 (n = 3)

Experiments:
[1] = target: T1, RSV F protein (C-terminal truncated F protein secreted from a recombinant baculovirus) (respiratory syncytial virus (RSV), UniProt P03420 26-524); assay: ELISA titration of antibody on RSV F antigen, O.D. 560
T1 construct: also called F antigen; RSV F antigen
T1 sequence (P03420 26-109, chain 1 of 2): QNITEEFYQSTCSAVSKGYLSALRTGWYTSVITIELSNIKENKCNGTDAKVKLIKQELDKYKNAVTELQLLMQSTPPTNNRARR
T1 sequence (P03420 137-524, chain 2 of 2): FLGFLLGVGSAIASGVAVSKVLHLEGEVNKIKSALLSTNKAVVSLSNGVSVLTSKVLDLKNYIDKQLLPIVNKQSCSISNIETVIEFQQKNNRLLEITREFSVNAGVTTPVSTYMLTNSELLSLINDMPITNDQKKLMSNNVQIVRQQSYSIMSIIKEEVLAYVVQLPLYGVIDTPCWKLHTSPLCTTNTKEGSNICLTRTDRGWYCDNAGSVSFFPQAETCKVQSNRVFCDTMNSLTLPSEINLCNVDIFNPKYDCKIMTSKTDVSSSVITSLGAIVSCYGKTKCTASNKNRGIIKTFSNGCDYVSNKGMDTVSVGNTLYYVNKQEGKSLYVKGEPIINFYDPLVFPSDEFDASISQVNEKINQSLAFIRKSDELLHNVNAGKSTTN

[2] = target: T1, RSV F protein (C-terminal truncated F …); assay: ELISA titration of antibody on 500 ng RSV F antigen; qualitative score from titration curves
[3] = target: T1, RSV F protein (C-terminal truncated F …); assay: SPR (BIAcore), F protein immobilized by EDC/NHS, Fab injected; kon and koff measured separately
[4] = target: T1, RSV F protein (C-terminal truncated F …); assay: SPR (BIAcore), from the kinetic constants of Table 4
[5] = target: T1, RSV F protein (C-terminal truncated F …); assay: SPR (BIAcore), F protein immobilized by EDC/NHS, Fab injected; calculated from the rate constants

Binder | Ag Score [2] [arbitrary score 0-4] | further results
B1 |  | EC50 (read off the curve) [1]: ~0.03 mg/L
B2 | 2 | 
B3 | 3 | 
B4 | 3.5 | EC50 (read off the curve) [1]: ~0.01 mg/L
B5 | 2 | 
B6 |  | koff [3]: 3.7e-07 s⁻¹; kon [3]: 134000 M⁻¹ s⁻¹; Kd [4]: ~2.8 pM; Ka [5]: 3.62e+11 M⁻¹
B7 | 2 | 
B8 | 2 | 
B9 | 3 | 
B10 | 2.5 | 
B11 | 2.5 | 
B12 | 2 | 
B13 | 3 | 
B14 | 2.5 | 
B15 | 2 | EC50 (read off the curve) [1]: ~0.04 mg/L
B16 | 0.1 | EC50 (read off the curve) [1]: ~0.2 mg/L
B17 | 3 | 
B18 | 2.5 | 
B19 | 3.5 | EC50 (read off the curve) [1]: ~0.02 mg/L
B20 | 3.5 | 
